Laboratory results reported in patent publication US20140220004A1.

Biological target: human transient receptor potential cation channel, subfamily A, member 1 (hTRPA1) (human) (UniProt O75762)
Assay: cell-based or functional assay

UniProt O75762, sequence (O75762 whole entry): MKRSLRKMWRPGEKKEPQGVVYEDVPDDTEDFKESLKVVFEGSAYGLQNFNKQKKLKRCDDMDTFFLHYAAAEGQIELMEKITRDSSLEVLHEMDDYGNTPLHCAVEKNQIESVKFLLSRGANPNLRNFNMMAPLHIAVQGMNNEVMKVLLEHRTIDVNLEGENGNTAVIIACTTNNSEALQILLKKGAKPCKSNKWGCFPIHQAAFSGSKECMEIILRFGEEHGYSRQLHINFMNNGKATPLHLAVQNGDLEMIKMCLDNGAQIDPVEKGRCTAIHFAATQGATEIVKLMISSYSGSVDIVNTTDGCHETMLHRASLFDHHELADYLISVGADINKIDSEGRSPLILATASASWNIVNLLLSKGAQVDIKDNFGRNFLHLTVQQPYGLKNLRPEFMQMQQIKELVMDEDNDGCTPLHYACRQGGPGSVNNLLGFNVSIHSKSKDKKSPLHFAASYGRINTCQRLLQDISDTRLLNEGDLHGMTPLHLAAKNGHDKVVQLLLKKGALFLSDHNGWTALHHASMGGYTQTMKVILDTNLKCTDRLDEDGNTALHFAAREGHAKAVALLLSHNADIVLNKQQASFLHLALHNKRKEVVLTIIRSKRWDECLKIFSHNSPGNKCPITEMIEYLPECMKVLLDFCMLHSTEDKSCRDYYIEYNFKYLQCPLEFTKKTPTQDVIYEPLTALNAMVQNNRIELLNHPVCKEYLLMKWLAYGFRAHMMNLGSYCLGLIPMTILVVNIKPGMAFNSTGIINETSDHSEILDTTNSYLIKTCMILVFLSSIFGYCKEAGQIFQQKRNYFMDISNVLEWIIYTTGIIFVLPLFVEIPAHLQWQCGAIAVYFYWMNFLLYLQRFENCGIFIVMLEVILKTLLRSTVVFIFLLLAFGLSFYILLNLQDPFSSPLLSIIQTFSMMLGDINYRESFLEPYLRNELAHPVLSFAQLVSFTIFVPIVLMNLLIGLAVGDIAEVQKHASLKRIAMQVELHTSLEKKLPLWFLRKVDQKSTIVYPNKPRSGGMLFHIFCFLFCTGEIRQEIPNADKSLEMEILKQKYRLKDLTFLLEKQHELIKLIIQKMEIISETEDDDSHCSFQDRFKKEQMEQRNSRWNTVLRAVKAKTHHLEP

A calcium flux in HEK cells transfected to express human TRPA1 (EC50) of 200 nM was found for “rabbit metallothionein 2 A isoform containing 7 zinc atoms (rabbit Zn7-MT2A) (Bestenbalt LLC, Estonia) (from UniProt P18055 1-62) (ligand)” in this work.
